Data on one molecule can be found in US20220184221A1 (published 2022).

Where no end group is shown, it is not given here.

Common to all, as to experiment: inhibition of recombinant KDM5 demethylase activity (H3K4me3 peptide); legend calls it IC50
The target of one experiment is KDM5A.
Another experiment concerns the target KDM5B.
The next experiment addresses T1, recombinant KDM5C (UniProt P41229 1-765).
T1 chain: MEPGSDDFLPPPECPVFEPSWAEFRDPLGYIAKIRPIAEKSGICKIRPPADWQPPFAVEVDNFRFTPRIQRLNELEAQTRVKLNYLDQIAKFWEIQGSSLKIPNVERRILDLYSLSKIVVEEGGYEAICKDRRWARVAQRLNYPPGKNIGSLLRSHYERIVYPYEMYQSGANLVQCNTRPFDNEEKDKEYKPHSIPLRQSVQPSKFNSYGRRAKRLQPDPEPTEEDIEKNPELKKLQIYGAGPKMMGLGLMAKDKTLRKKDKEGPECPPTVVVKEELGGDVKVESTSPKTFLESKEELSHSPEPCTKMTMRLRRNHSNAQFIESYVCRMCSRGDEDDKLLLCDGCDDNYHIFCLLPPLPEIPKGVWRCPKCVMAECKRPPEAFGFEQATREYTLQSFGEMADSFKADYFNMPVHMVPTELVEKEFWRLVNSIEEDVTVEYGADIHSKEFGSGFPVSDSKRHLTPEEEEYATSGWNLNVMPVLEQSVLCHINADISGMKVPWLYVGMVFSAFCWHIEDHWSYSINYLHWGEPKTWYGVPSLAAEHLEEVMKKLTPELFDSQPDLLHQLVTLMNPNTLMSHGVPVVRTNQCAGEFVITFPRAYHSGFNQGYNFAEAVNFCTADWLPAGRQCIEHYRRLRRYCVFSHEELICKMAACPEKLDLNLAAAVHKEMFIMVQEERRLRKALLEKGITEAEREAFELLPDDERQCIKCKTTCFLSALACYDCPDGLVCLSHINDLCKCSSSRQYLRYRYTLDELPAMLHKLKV

In the case of TEDSKTHHH (also: fluorescein label in FP assay, end not given here) [EP4], the figures for the EC50 in the experiment with KDM5A, in the experiment with KDM5B and with recombinant KDM5C were 422 nM, 377 nM and 0.97 nM, respectively.
